Results taken from patent publication US20030091983A1.

Biological target: synthetic HA 11 A-beta (1-40) peptide (human)
Test: sandwich ELISA, anti-HA 11 capture, detection with position 1 or position 40 antibodies

Question: Which peptide concentration at which the ELISA signal approached saturation does the source give for mAB anti-HA 11 (BABCO) (antibody) here?
Answer: The peptide concentration at which the ELISA signal approached saturation was 10 ng/mL.
